Drawing on patent publication US20150344570A1 (published 2015), this text covers Ho/Con_2aR for eight molecules.

B1: GpH7-B3 variant L328_14T/GpL16-k0 (antibody, human IgG1, kappa)
heavy: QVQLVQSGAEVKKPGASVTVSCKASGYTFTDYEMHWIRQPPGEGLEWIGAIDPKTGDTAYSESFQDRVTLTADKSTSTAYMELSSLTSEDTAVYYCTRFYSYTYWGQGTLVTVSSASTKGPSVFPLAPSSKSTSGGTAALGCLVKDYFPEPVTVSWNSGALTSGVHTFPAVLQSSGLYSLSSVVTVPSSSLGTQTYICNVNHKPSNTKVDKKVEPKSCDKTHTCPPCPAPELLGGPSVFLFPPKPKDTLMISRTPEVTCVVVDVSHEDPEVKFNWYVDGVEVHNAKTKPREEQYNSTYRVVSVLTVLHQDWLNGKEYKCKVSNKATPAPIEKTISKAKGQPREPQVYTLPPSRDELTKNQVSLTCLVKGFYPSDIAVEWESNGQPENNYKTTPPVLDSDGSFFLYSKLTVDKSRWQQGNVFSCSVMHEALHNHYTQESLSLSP
light: DIVMTQSPLSLPVTPGEPASISCQASESLVHSNRNTYLHWYLQKPGQSPQLLIYKVSNRFSGVPDRFSGSGSGTDFTLKISRVEAEDVGVYYCSQNTHVPPTFGQGTKVEIERTVAAPSVFIFPPSDEQLKSGTASVVCLLNNFYPREAKVQWKVDNALQSGNSQESVTEQDSKDSTYSLSSTLTLSKADYEKHKVYACEVTHQGLSSPVTKSFNRGEC
notes: homodimerized: alteration in both H chains; also called Ho Ab L328_14T
B2: GpH7-B3 variant P331_15Y/GpL16-k0 (antibody, human IgG1, kappa)
heavy: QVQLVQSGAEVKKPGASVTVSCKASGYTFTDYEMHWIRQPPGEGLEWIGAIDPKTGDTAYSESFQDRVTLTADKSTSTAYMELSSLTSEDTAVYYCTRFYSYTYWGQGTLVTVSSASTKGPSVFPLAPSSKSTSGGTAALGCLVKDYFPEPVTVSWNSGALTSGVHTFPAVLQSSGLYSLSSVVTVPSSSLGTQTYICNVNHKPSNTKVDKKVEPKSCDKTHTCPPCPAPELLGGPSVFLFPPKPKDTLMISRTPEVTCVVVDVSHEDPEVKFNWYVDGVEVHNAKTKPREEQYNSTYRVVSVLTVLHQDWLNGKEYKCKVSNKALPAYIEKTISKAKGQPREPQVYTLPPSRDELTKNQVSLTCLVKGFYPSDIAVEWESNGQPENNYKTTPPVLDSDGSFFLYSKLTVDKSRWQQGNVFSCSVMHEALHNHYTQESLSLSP
light: DIVMTQSPLSLPVTPGEPASISCQASESLVHSNRNTYLHWYLQKPGQSPQLLIYKVSNRFSGVPDRFSGSGSGTDFTLKISRVEAEDVGVYYCSQNTHVPPTFGQGTKVEIERTVAAPSVFIFPPSDEQLKSGTASVVCLLNNFYPREAKVQWKVDNALQSGNSQESVTEQDSKDSTYSLSSTLTLSKADYEKHKVYACEVTHQGLSSPVTKSFNRGEC
notes: homodimerized: alteration in both H chains; also called Ho Ab P331_15Y
B3: GpH7-B3 variant P331_16H/GpL16-k0 (antibody, human IgG1, kappa)
heavy: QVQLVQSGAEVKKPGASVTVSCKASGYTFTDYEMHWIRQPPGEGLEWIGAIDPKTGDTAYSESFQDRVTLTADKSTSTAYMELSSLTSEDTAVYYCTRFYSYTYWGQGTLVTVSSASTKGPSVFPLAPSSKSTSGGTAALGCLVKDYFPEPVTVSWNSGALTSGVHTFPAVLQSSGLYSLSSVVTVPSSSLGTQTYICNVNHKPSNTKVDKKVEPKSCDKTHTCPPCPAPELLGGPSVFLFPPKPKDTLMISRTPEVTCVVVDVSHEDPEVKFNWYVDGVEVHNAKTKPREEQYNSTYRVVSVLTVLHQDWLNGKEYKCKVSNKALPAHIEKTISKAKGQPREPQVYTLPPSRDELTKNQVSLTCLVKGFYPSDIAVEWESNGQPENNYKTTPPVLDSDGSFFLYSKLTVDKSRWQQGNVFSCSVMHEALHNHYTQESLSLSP
light: DIVMTQSPLSLPVTPGEPASISCQASESLVHSNRNTYLHWYLQKPGQSPQLLIYKVSNRFSGVPDRFSGSGSGTDFTLKISRVEAEDVGVYYCSQNTHVPPTFGQGTKVEIERTVAAPSVFIFPPSDEQLKSGTASVVCLLNNFYPREAKVQWKVDNALQSGNSQESVTEQDSKDSTYSLSSTLTLSKADYEKHKVYACEVTHQGLSSPVTKSFNRGEC
notes: homodimerized: alteration in both H chains; also called Ho Ab P331_16H
B4: GpH7-B3 variant P238_04F/GpL16-k0 (antibody, human IgG1, kappa)
heavy: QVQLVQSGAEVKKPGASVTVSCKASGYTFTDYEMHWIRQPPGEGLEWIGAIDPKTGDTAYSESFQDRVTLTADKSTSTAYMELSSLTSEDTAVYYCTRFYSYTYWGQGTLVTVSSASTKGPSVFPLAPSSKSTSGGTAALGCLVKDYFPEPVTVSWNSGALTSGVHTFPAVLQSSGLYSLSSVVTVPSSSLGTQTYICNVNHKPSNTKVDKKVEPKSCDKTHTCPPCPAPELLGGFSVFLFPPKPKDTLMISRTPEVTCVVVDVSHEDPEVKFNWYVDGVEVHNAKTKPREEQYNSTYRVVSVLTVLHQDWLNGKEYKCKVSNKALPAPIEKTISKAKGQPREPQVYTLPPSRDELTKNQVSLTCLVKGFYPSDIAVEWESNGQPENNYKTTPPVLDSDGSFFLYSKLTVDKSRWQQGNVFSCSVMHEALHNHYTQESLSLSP
light: DIVMTQSPLSLPVTPGEPASISCQASESLVHSNRNTYLHWYLQKPGQSPQLLIYKVSNRFSGVPDRFSGSGSGTDFTLKISRVEAEDVGVYYCSQNTHVPPTFGQGTKVEIERTVAAPSVFIFPPSDEQLKSGTASVVCLLNNFYPREAKVQWKVDNALQSGNSQESVTEQDSKDSTYSLSSTLTLSKADYEKHKVYACEVTHQGLSSPVTKSFNRGEC
notes: homodimerized: alteration in both H chains; also called Ho Ab P238_04F
B5: GpH7-B3 variant P238_03V/GpL16-k0 (antibody, human IgG1, kappa)
heavy: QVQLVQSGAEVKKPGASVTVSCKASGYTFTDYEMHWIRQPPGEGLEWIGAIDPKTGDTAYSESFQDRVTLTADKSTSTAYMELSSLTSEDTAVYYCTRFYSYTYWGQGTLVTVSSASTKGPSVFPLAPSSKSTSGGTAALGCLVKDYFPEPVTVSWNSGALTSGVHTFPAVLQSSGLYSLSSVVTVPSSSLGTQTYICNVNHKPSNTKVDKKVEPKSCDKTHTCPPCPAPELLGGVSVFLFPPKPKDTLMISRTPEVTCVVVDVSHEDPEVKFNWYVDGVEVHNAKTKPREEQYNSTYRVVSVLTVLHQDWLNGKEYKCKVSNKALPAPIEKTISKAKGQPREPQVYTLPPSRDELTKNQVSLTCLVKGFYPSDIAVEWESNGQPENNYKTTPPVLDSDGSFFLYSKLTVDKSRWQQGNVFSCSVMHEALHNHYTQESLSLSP
light: DIVMTQSPLSLPVTPGEPASISCQASESLVHSNRNTYLHWYLQKPGQSPQLLIYKVSNRFSGVPDRFSGSGSGTDFTLKISRVEAEDVGVYYCSQNTHVPPTFGQGTKVEIERTVAAPSVFIFPPSDEQLKSGTASVVCLLNNFYPREAKVQWKVDNALQSGNSQESVTEQDSKDSTYSLSSTLTLSKADYEKHKVYACEVTHQGLSSPVTKSFNRGEC
notes: homodimerized: alteration in both H chains; also called Ho Ab P238_03V
B6: GpH7-B3 variant P271_08L/GpL16-k0 (antibody, human IgG1, kappa)
heavy: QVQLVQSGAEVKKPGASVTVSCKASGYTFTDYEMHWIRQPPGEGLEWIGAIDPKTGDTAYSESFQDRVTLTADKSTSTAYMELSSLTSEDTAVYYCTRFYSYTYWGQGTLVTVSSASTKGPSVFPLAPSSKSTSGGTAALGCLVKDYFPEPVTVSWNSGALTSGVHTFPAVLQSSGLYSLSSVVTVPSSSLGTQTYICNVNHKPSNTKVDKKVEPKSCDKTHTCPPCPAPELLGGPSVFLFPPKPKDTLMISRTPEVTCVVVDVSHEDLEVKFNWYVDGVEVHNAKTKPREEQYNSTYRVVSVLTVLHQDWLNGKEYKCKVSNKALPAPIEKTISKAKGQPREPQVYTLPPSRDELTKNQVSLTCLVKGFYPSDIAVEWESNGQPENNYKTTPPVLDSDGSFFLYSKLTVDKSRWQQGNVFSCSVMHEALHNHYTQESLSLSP
light: DIVMTQSPLSLPVTPGEPASISCQASESLVHSNRNTYLHWYLQKPGQSPQLLIYKVSNRFSGVPDRFSGSGSGTDFTLKISRVEAEDVGVYYCSQNTHVPPTFGQGTKVEIERTVAAPSVFIFPPSDEQLKSGTASVVCLLNNFYPREAKVQWKVDNALQSGNSQESVTEQDSKDSTYSLSSTLTLSKADYEKHKVYACEVTHQGLSSPVTKSFNRGEC
notes: homodimerized: alteration in both H chains; also called Ho Ab P271_08L
B7: GpH7-B3 variant P331_04F/GpL16-k0 (antibody, human IgG1, kappa)
heavy: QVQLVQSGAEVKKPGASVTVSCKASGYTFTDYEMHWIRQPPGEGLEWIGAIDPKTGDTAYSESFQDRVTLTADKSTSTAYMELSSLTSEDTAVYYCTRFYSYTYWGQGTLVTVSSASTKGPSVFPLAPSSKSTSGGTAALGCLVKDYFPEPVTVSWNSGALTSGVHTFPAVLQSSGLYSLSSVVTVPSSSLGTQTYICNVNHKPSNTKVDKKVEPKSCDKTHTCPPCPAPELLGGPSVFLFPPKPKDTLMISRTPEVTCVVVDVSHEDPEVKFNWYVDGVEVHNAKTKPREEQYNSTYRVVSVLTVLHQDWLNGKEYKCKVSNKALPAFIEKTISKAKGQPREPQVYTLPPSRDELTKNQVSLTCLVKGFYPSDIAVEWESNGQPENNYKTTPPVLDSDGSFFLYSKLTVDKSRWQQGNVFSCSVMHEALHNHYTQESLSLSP
light: DIVMTQSPLSLPVTPGEPASISCQASESLVHSNRNTYLHWYLQKPGQSPQLLIYKVSNRFSGVPDRFSGSGSGTDFTLKISRVEAEDVGVYYCSQNTHVPPTFGQGTKVEIERTVAAPSVFIFPPSDEQLKSGTASVVCLLNNFYPREAKVQWKVDNALQSGNSQESVTEQDSKDSTYSLSSTLTLSKADYEKHKVYACEVTHQGLSSPVTKSFNRGEC
notes: homodimerized: alteration in both H chains; also called Ho Ab P331_04F
B8: GpH7-B3 variant P331_02A/GpL16-k0 (antibody, human IgG1, kappa)
heavy: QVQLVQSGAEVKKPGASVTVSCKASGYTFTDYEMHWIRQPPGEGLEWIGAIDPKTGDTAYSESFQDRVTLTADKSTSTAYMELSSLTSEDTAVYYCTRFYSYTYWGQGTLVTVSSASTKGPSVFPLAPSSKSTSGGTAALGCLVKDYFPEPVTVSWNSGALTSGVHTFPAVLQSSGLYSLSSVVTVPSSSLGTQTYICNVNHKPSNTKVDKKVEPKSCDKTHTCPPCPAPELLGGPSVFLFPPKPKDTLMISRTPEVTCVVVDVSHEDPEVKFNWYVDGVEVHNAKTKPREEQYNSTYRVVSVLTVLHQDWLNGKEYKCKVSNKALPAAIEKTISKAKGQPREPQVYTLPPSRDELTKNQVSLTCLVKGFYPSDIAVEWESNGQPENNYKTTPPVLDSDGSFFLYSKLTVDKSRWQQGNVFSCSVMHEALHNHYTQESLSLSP
light: DIVMTQSPLSLPVTPGEPASISCQASESLVHSNRNTYLHWYLQKPGQSPQLLIYKVSNRFSGVPDRFSGSGSGTDFTLKISRVEAEDVGVYYCSQNTHVPPTFGQGTKVEIERTVAAPSVFIFPPSDEQLKSGTASVVCLLNNFYPREAKVQWKVDNALQSGNSQESVTEQDSKDSTYSLSSTLTLSKADYEKHKVYACEVTHQGLSSPVTKSFNRGEC
notes: homodimerized: alteration in both H chains; also called Ho Ab P331_02A

In this experiment the target is T1, FcγRIIa R extracellular domain with C-terminal His tag (human, UniProt P12318 34-217).
T1 construct: extracellular domain; also called FcgRIIa R; 2aR; not shown: His tag at the C terminus
T1 sequence (looked up): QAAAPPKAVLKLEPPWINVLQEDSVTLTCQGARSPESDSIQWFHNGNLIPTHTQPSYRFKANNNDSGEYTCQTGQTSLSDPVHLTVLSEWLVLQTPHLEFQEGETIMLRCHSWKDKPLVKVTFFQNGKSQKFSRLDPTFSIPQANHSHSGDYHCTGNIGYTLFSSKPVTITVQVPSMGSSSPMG
As to the kind of experiment: SPR (Biacore), relative FcγRIIa R binding, GpH7-B3/GpL16-k0 = 100. How it is done:
Analysis of interaction between objective antibody and the FcγR was carried out using Biacore T100 (GE Healthcare). HBS-EP+ (GE Healthcare) was used as the running buffer, and the measurement temperature was set to 25° C. Chips produced by immobilizing the antigen peptide by the amine coupling method to a Series S Sencor Chip CM5 (GE Healthcare), or alternatively, chips produced by allowing preliminarily biotinylated antigen peptides to interact with and immobilize onto a Series S Sensor Chip SA (certified) (GE Healthcare) were used. Antibodies of interest were captured onto an antigen peptide-immobilized chip, and allowed to interact to each FcγR diluted with running buffer. To regenerate and repeatedly use the chip, the antibodies captured on the chip were washed off by reacting 10 mM glycine-HCl, pH 1.5.
(In SPR one partner is held on a chip, and binding of the other changes the refractive index at the surface.)
B1: the Ho/Con_2aR is 118 % of control.

Take B2: the Ho/Con_2aR was 105 % of control.

With B3, the Ho/Con_2aR is 100 % of control.

As for B4, the Ho/Con_2aR was 146 % of control.

Turning to B5, the Ho/Con_2aR is 116 % of control.

Take B6: the Ho/Con_2aR is 102 % of control.

For B7, the Ho/Con_2aR is 106 % of control.

In the case of B8, the Ho/Con_2aR was 102 % of control.
